The Kd is the concentration at which binding is half-saturated. Higher therefore signals a looser complex.

For the assay, the target named is T1, IL-7R/Fc fusion protein.
T1 construct: Loaded on the SPR chip; also called IL-7 receptor
Description: SPR, IL-7R/Fc loaded chip, Scrubber2. How it is done:
Fc fusion protein was determined by surface plasmon resonance (SPR). Association (Ka), Dissociation (Kd) and total binding constant (KD) were calculated using the Scrubber2 program (BioLogic Software).

T1 sequence (P16871 whole entry, the tested form may be a part): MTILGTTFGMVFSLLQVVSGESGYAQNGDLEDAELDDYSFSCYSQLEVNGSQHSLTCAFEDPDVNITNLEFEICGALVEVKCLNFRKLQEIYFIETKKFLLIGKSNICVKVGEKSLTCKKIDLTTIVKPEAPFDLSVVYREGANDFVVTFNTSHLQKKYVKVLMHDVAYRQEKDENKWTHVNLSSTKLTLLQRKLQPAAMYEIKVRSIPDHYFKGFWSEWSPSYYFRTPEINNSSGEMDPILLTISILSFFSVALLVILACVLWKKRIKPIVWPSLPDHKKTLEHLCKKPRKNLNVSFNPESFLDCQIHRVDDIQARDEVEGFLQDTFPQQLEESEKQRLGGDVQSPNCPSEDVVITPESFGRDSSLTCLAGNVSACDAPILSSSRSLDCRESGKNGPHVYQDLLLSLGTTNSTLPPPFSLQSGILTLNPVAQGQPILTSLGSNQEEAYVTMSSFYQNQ

B1: IL-7AT, attenuated IL-7 with Thr97 substituted by Val (ligand)
chain: DCDIEGKDGKQYESVLMVSIDQLLDSMKEIGSNCLNNEFNFFKRHICDANKEGMFLFRAARKLRQFLKMNSVGDFDLHLLKVSEGTTILLNCTGQVKGRKPAALGEAQPTKSLEENKSLKEQKKLNDLCFLKRLLQEIKTCWNKILMGTKEH
notes: also called IL-7 ligand; HMM-IL-7AT
Regarding B1, the dissociation constant Kd was found to be 100 nM.

Values taken from patent US9266937 (UNIVERSITY OF CENTRAL FLORIDA RESEARCH FOUNDATION, dated 2016).
